# Molecular target: T1, NKG2C (transgenic, expressed on the surface of iPSC-derived NK cells) (Homo sapiens (Human), UniProt P26717 1-231)
# T1 construct: After 2A cleavage a C-terminal 2A remnant may stay on the chain; also called transgenic NKG2C
# Assay: FACS of surface NKG2C on iNK cells from the NKG2C only iPSC line; pairing inferred from surface expression
# Text: After the engineering step, iPSCs were sorted for the desired phenotype. […] Engineered iPSCs were differentiated into CD34+ hematopoietic progenitor cells and subsequently differentiated into CD56+ NK cells (iNK cells) using a stepwise differentiation and expansion strategy. Surface NKG2C expression was low on unmodified iNK cells (about 5-10%) as determined by FACS.
# T1 sequence (P26717 whole entry): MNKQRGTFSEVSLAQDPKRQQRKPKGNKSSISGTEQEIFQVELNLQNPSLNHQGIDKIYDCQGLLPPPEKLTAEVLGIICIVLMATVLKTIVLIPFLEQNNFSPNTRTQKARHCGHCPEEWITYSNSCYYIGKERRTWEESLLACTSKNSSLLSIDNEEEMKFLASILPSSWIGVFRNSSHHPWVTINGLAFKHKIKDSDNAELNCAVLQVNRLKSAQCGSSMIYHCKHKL
row,Binder,binding result
1,"endogenous CD94 (receptor, human, UniProt Q13241 1-179, looked up, whole, on cells) MAVFKTTLWRLISGTLGIICLSLMSTLGILLKNSFTKLSIEPAFTPGPNIELQKDSDCCSCQEKWVGYRCNCYFISSEQKTWNESRHLCASQKSSLLQLQNTDELDFMSSSQQFYWIGLSYSEEHTAWLWENGSALSQYLFPSFETFNTKNCIAYNPNGNALDESCEDKNRYICKQQLI",binds
2,"endogenous DAP12 (other, human, UniProt O43914 22-113, looked up, whole, on cells) LRPVQAQAQSDCSCSTVSPGVLAGIVMGDLVLTVLIALAVYFLGRLVPRGRGAAEAATRKQRITETESPYQELQGQRSDVYSDLNTQRPYYK",binds

# From patent US20220127328A1 (FATE THERAPEUTICS, published 2022)
